According to PMC8060857:

Target: HR-N1, SARS S protein amino acids 882-973 (SARS-CoV (Urbani strain)) (UniProt P59594)
Experiment: AUC

HR-N1, SARS S protein amino acids 882-973 (from UniProt P59594 882-973) (domain or fragment)
stoichiometry N: 4
